# Laboratory results taken from patent US20210115113A1 (CITY OF HOPE, published 2021).
# B1: HB20 (antibody, V domains shown)
# VH: ELVKPGASVKLSCKASGYTFTSYWIQWVKQRPGQGLEWIGEINPTNGHTNYNEKFKTKATLTVDKSSSTAYMRLSSLTSEDSAVYYCARNLYYYGRPDYWGQGTSVTVSS
# VL: SSLSASLGDRVTISCRASQDIGNYLNWYQQKPDGTVKLLIYYTSRLHSGVPSRFSGSGSGTDYSLTISNLEQEDIATYFCQQGNALPPTFGGGTKLEIKR
# Columns and labels:
# [1] = target: EBV gp350 on EBV-eGFP virions (Epstein-Barr virus) (UniProt P03200); test: cell-based or functional assay
# [2] = target: murine 72A1 (m72A1), anti-EBV gp350 neutralizing antibody from hybridoma HB168; test: ELISA, mAb 10 µg/ml captured on soluble gp350, HRP secondary 1:2,000
# humanized 72A1 (h72A1) = test: as above
# [3] = target: T1, EBV gp350 on EBV-eGFP virions (Epstein-Barr virus, UniProt P03200 1-907); test: cell-based or functional assay
# T1 sequence: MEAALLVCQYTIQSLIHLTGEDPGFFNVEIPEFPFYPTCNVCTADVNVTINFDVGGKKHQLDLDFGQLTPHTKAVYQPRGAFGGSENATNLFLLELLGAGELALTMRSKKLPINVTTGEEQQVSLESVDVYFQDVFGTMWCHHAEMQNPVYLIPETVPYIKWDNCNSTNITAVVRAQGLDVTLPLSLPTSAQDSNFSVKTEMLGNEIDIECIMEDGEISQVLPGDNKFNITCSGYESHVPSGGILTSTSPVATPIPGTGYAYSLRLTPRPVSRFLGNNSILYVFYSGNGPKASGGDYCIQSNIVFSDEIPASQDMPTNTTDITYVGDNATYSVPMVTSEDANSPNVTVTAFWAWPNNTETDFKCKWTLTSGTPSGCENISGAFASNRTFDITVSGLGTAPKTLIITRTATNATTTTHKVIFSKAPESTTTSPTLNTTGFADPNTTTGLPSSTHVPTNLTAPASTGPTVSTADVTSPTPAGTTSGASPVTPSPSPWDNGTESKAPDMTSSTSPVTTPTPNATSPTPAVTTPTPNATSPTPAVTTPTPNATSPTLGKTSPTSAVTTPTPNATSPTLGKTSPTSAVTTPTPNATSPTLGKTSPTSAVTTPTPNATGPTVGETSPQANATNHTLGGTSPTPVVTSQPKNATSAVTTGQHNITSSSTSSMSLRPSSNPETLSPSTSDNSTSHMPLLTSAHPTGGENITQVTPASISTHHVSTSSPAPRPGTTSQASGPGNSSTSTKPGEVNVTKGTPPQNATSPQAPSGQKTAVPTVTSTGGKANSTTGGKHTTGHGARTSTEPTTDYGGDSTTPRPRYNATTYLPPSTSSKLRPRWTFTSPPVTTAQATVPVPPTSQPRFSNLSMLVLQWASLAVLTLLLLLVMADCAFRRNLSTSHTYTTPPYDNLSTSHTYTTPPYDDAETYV
# [4] = target: T2, EBV gp350 expressed on the surface of stably transfected CHO cells (Epstein-Barr virus, UniProt P03200 1-907); test: cell competition (flow), unlabeled 125 µg/ml; competitor: biotinylated m72A1 1 µg/ml
# T2 construct: also called native gp350; gp350 expressing CHO cells
# T2 sequence: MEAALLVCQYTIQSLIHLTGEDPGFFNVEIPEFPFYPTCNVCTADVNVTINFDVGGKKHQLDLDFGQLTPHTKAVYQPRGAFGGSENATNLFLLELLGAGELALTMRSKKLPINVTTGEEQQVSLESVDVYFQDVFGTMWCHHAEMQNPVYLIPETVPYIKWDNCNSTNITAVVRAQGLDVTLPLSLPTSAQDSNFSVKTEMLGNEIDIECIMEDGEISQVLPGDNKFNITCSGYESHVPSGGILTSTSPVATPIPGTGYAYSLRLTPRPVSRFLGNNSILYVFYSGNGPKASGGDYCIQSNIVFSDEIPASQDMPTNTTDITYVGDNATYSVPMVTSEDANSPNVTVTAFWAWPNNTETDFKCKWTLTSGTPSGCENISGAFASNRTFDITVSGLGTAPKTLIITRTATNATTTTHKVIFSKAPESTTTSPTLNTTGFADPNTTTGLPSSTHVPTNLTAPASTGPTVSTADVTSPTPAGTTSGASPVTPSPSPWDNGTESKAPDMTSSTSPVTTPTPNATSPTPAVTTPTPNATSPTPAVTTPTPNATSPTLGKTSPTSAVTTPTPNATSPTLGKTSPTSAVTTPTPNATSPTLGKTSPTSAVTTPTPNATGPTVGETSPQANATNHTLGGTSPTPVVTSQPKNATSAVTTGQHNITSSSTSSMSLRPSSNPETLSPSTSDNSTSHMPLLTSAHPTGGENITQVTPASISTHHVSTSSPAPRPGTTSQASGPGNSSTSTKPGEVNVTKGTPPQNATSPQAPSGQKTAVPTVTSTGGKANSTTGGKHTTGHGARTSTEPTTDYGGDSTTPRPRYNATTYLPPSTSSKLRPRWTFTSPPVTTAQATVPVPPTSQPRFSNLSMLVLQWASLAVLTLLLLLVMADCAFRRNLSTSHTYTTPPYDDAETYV
# [5] = target: T2, EBV gp350 expressed on the surface of …; test: cell competition (flow), unlabeled 250 µg/ml; competitor: biotinylated m72A1 1 µg/ml
# [6] = target: T2, EBV gp350 expressed on the surface of …; test: cell competition (flow), unlabeled 500 µg/ml; competitor: biotinylated m72A1 1 µg/ml
# [7] = target: T2, EBV gp350 expressed on the surface of …; test: cell competition (flow), unlabeled 67.5 µg/ml; competitor: biotinylated m72A1 1 µg/ml
# [8] = target: T2, EBV gp350 expressed on the surface of …; test: cross-competition on gp350-CHO cells (flow), unlabeled 500 µg/ml; competitor: biotinylated HB1
# [9] = target: T2, EBV gp350 expressed on the surface of …; test: cross-competition on gp350-CHO cells (flow), unlabeled 500 µg/ml; competitor: biotinylated HB5
# [10] = target: T2, EBV gp350 expressed on the surface of …; test: cross-competition on gp350-CHO cells (flow), unlabeled 500 µg/ml; competitor: biotinylated 54A1
# [11] = target: T2, EBV gp350 expressed on the surface of …; test: cross-competition on gp350-CHO cells (flow), unlabeled 500 µg/ml; competitor: biotinylated HB11
# [12] = target: T2, EBV gp350 expressed on the surface of …; test: cross-competition on gp350-CHO cells (flow), unlabeled 500 µg/ml; competitor: biotinylated HB17
# [13] = target: T2, EBV gp350 expressed on the surface of …; test: cross-competition on gp350-CHO cells (flow), unlabeled 500 µg/ml; competitor: biotinylated HB20
# [14] = target: T2, EBV gp350 expressed on the surface of …; test: cross-competition on gp350-CHO cells (flow), unlabeled 500 µg/ml; competitor: biotinylated h72A1
# [15] = target: T2, EBV gp350 expressed on the surface of …; test: cross-competition on gp350-CHO cells (flow), unlabeled 500 µg/ml; competitor: biotinylated m72A1
# Sequence of murine 72A1 (m72A1), anti-EBV gp350 neutralizing antibody from hybridoma HB168 (VH, as listed by the source limits assumed, chain 1 of 2): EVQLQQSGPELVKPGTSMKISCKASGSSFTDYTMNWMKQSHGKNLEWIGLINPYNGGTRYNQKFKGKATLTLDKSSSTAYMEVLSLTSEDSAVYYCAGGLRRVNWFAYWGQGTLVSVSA
# Sequence of murine 72A1 (m72A1), anti-EBV gp350 neutralizing antibody from hybridoma HB168 (VL, as listed by the source limits assumed, chain 2 of 2): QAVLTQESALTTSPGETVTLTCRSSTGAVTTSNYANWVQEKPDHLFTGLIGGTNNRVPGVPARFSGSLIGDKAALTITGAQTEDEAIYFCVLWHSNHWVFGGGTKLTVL
# Sequence of humanized 72A1 (h72A1) (VH, as listed by the source limits assumed, chain 1 of 2): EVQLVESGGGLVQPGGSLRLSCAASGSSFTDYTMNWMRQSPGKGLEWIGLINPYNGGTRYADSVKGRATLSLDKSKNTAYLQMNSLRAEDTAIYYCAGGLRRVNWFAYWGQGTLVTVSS
# Sequence of humanized 72A1 (h72A1) (VL, as listed by the source limits assumed, chain 2 of 2): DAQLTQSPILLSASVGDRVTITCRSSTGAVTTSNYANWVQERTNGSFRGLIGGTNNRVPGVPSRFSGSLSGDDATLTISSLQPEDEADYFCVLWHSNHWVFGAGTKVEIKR
molecule,measurement,setting,value
"murine 72A1 (m72A1), anti-EBV gp350 neutralizing antibody from hybridoma HB168",% blocking of EBV-eGFP infection of Raji cells at 12.5 µg/ml,[1],93%
same,"% neutralization of EBV-eGFP infection of Raji cells, 12.5-100 µg/ml",[1],35 to 80%
HRP-conjugated goat anti-mouse IgG (antibody),fold ELISA signal above the background (1× PBS),[2],28 fold
same,fold ELISA signal as compared to goat anti-human IgG,[2],9 fold
HRP-conjugated goat anti-human IgG (antibody),fold ELISA signal over the background,humanized 72A1 (h72A1),2100 fold
B1,% neutralization of EBV-eGFP infection of Raji cells at 100 µg/ml,[3],90%
same,% inhibition of biotinylated nAbs,[4],87%
same,% inhibition of biotinylated nAbs,[5],91%
same,% inhibition of biotinylated nAbs,[6],96%
same,% inhibition of biotinylated nAbs,[7],89%
same,% inhibition of biotinylated nAbs,[8],88%
same,% inhibition of biotinylated nAbs,[9],97%
same,% inhibition of biotinylated nAbs,[10],0%
same,% inhibition of biotinylated nAbs,[11],89%
same,% inhibition of biotinylated nAbs,[12],13%
same,% inhibition of biotinylated nAbs,[13],59%
same,% inhibition of biotinylated nAbs,[14],96%
same,% inhibition of biotinylated nAbs,[15],98%
